Publication PMC8776815, “Rational design of a helical peptide inhibitor targeting c-Myb–KIX interaction” (Scientific Reports, 2022)
Residue numbers refer to the chain shown, from its start. In names and notes the source's numbering stands. No end group written: not given here.

B1: Myb32 wild type (residues 284-315 of mouse c-Myb, transactivation domain fragment) (peptide)
chain: GYNDEDPEKEKRIKELELLLMSTENELKGQQAL
notes: additional Gly residue left at the N-terminus after thrombin cleavage; Myb32, residues 284-315 of mouse c-Myb; 33-residue peptide (Gly + 32 residues); also called WT; wild-type Myb32; source: E. coli BL21(DE3), purified (Ni-NTA, thrombin cleavage on the column, DEAE anion exchange); not shown: His6, N-terminal, cleaved; GB1, N-terminal, cleaved
B2: Myb32 K291R (peptide)
chain: B1 chain with K9R
notes: additional Gly residue left at the N-terminus after thrombin cleavage; Myb32, residues 284-315 of mouse c-Myb; source: E. coli BL21(DE3), purified (Ni-NTA, thrombin cleavage on the column, DEAE anion exchange); not shown: His6, N-terminal, cleaved; GB1, N-terminal, cleaved
B3: Myb32 K296R (peptide)
chain: B1 chain with K14R
notes: as for B2
B4: Myb32 K291R/K293R/K296R triple mutant (RRR) (peptide)
chain: B1 chain with K9R, K11R, K14R
notes: additional Gly residue left at the N-terminus after thrombin cleavage; Myb32, residues 284-315 of mouse c-Myb; also called RRR Myb32 mutant; source: E. coli BL21(DE3), purified (Ni-NTA, thrombin cleavage on the column, DEAE anion exchange); not shown: His6, N-terminal, cleaved; GB1, N-terminal, cleaved
B5: Myb32 K293R (peptide)
chain: B1 chain with K11R
notes: as for B2
B6: Myb32 K291R/K293R (peptide)
chain: B1 chain with K9R, K11R
notes: as for B2
B7: Myb32 K291R/K296R (peptide)
chain: B1 chain with K9R, K14R
notes: as for B2
B8: Myb32 E292L (peptide)
chain: B1 chain with E10L
notes: as for B2
B9: Myb32 K293R/K296R (peptide)
chain: B1 chain with K11R, K14R
notes: as for B2
B10: His-tag-GB1-Myb32 (wild-type Myb32 with a His-tag and GB1) (peptide)
chain: YNDEDPEKEKRIKELELLLMSTENELKGQQAL
notes: Myb32, residues 284-315 of mouse c-Myb; 6xHis-tag, B1 domain of protein G and the thrombin cleavage site stand before Myb32; coupled to the chip by amine coupling; also called immobilized wild-type Myb32; His-tagged Myb32 protein; source: E. coli BL21(DE3), purified (Ni-NTA, eluted with imidazole); not shown: His6, N-terminal, kept; GB1, N-terminal, kept

Target: T1, KIX domain of CBP (c-Myb/pKID site) (Mus musculus, UniProt P45481)
T1 construct: KIX (residues 586–672 of mouse CBP); 6xHis-tag with thrombin cleavage site (MGHHHHHHSSGLVPR) (N); made in house; host or cells: E. coli BL21(DE3)pLysS for KIX; E. coli BL21(DE3) for MLL28
Assay: Isothermal titration calorimetry (ITC) of KIX binding of Myb32 peptides
Conditions: 20 mM Tris-acetate pH 7.0, 50 mM NaCl, 30 °C, 600 μM Myb32 into 45 µM KIX + 90 µM MLL28, mean ± standard error, more than two measurements, read-out: Kd (dissociation constant for KIX binding)
Source text: Next, we performed isothermal titration calorimetry (ITC) measurements to investigate the KIX-binding affinity of the peptides. Although Myb32 primarily binds the c-Myb/pKID site on KIX, previous studies have shown that it also binds the MLL site, located opposite the c-Myb/pKID site[38]. Therefore, to prevent the secondary binding of Myb32, we conducted all ITC experiments in the presence of the MLL TAD peptide (residues 2842–2869, called MLL28) with a two-fold excess of MLL over KIX[38].
ITC measurements were conducted using a MicroCal iTC200 (Malvern Panalytical Ltd., Malvern, United Kingdom) in ITC buffer at 30 °C. All samples were dialyzed sufficiently before the experiments. 600 μM Myb32 was titrated into the cell containing 45 µM KIX and 90 µM MLL28. The data were analyzed using Origin software (OriginLab Co., Northampton, MA, USA) to obtain the Kd, stoichiometry of binding (N), and enthalpy change upon binding (ΔH). The Gibbs free energy change (ΔG) and entropy change (ΔS) upon binding were obtained as follows:3 ΔG=-RTln1/Kd 4 ΔS=ΔH-ΔG/T where R is the gas constant, and T is the temperature.

Row | Molecule | Kd
1 | GYNDEDPEKERRIKELELLLMSTENELKGQQAL [K293R] | 220 ± 10 nM
2 | GYNDEDPEKEKRIKELELLLMSTENELKGQQAL [WT] | 220 ± 10 nM

Target: KIX
Assay: not given
Conditions: previous studies; read-out: Kd (dissociation constant for KIX binding); cited from earlier work
Source text: Although the c-Myb TAD is intrinsically disordered, the region of residues 284–315, called Myb32, has a high helical propensity. […] Moreover, Myb32 is known to bind KIX by a conformational selection mechanism. This information may provide a clue to improve the binding affinity to KIX[38],[40]. Therefore, Myb32 is a suitable template for designing peptide inhibitors.

Row | Molecule | Kd
3 | c-Myb TAD full length: full-length transactivation domain of c-Myb (residues 275–327), intrinsically disordered (PAAAAIQRHYNDEDPEKEKRIKELELLLMSTENELKGQQVLPTQNHTCSYPGW; transactivation domain; UniProt P10242 275-327, looked up, fragment) | 500 nM

Target: CBP KIX (Mus musculus) (UniProt P45481)
Sequence (P45481 583-668): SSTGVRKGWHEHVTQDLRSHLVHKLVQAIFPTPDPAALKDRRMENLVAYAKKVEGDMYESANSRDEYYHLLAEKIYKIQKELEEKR
Assay: not given
Conditions: cited from earlier work

Row | Molecule | Kd
4 | c-Myb TAD TAD (from UniProt P06876) | 500 nM

Target: T2, KIX domain of CBP in the presence of the MLL TAD peptide MLL28 (two-fold excess of MLL28 over KIX) (mouse | human, UniProt P45481 586-672; Q03164 2842-2869)
T2 construct: KIX domain, residues 586-672 of mouse CBP; single Tyr residue attached at the C-terminus of MLL28 for concentration determination; A Gly left at the N-terminus after thrombin cleavage is stated only for Myb32, it is likely on MLL28 too; also called KIX and MLL28; source: E. coli BL21(DE3)pLysS (KIX) and BL21(DE3) (MLL28), each purified; 45 uM KIX and 90 uM MLL28 together in the ITC cell; not …
T2 sequence (P45481 586-672, chain 1 of 2): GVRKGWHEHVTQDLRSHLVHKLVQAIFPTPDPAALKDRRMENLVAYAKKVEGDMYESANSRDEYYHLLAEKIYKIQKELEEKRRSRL
T2 sequence (Q03164 other isoform, or with tags, fused parts or gaps, chain 2 of 2): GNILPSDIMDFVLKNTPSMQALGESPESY
Assay: ITC; 600 uM Myb32 peptide titrated into the cell with 45 uM KIX and 90 uM MLL28; 20 mM Tris-acetate pH 7.0, 50 mM NaCl; 30 °C
Conditions: both partners purified

Row | Molecule | Kd | dH | stoichiometry N
5 | B1 | 220 nM | -6.49 kcal mol^–1 | 0.97
6 | B2 | 210 nM | -6.46 kcal mol^–1 | 0.97
7 | B3 | 160 nM | -6.3 kcal mol^–1 | 0.96
8 | B4 | 80 nM | -7.57 kcal mol^–1 | 0.99
9 | B5 |  | -7.03 kcal mol^–1 | 0.94
10 | B6 | 140 nM | -7.31 kcal mol^–1 | 0.84
11 | B7 | 120 nM | -7.56 kcal mol^–1 | 0.9
12 | B8 | 480 nM | -5.45 kcal mol^–1 | 0.92
13 | B9 | 130 nM | -7.31 kcal mol^–1 | 0.96

Target: T2, KIX domain of CBP in the presence of …
Assay: ITC; under the conditions of the SPR measurement: 20 mM sodium phosphate pH 7.0, 300 mM NaCl; in the presence of MLL28 (all ITC experiments)
Conditions: both partners purified

Row | Molecule | Kd | dH | stoichiometry N
14 | B1 | 510 nM | -13.8 kcal mol^–1 | 0.99
15 | B4 | 260 nM | -14.8 kcal mol^–1 | 0.99

Target: T3, KIX domain of CREB-binding protein (residues 586-672 of mouse CBP) without a His-tag (mouse, UniProt P45481 586-672)
T3 construct: KIX domain, residues 586-672 of mouse CBP; the thrombin site ends in LVPR followed by G586 of KIX; also called KIX without a His-tag; source: E. coli BL21(DE3)pLysS, purified (Ni-NTA, thrombin cleavage, size exclusion chromatography); not shown: His6, N-terminal, cleaved
T3 sequence (P45481 586-672): as the sequence (P45481 586-672, chain 1 of 2) above
Assay: SPR; competitive binding assay (OpenSPR, localized SPR); His-tag-GB1-Myb32 wild type immobilised by amine coupling; 1 uM KIX without His-tag injected alone or mixed with inhibitor (1 nM to 300 uM); 20 mM sodium phosphate pH 7.0, 300 mM NaCl; 30 °C
Conditions: both partners purified

Row | Molecule | binding result | IC50
16 | B10 | binds | 
17 | B1 |  | 10900 nM
18 | B4 |  | 5600 nM
